Here are results for 2 sequences from article PMC3591269.

The data set deals with MINI3 (WRKY10) (Arabidopsis) (UniProt Q9LG05). Nature of the data set: competition. The note with it: 25 mM Hepes-KOH pH 7.2, 40 mM KCl, 1 mM DTT, 1 mM EDTA, 10% glycerol, 0.01 uM ZnCl2, 2 ug poly-dIdC, 3 ng probe, 1 ug protein in 20 ul; room temperature ….
Sequence of MINI3 (WRKY10) (Arabidopsis) (Q9LG05 whole entry): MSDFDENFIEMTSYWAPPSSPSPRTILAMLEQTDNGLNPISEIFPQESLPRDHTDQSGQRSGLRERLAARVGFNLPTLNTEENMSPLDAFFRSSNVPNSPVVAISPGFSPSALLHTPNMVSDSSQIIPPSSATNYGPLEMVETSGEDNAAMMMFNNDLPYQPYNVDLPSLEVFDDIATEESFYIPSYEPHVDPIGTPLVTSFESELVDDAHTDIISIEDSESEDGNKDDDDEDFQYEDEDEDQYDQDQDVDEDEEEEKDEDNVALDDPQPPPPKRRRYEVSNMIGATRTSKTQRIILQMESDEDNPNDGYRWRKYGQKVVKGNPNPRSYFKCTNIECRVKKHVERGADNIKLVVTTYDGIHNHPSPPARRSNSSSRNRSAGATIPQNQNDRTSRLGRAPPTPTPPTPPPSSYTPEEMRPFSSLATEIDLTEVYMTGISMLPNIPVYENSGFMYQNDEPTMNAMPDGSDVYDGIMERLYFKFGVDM

In the case of “GACATTACTGTCATCGTATATGAAACATTATTCTAATAATTGTTATAAAAATACCGGAGTTAAACTAGATTGATTATCACCGAGATTTTATATTTGTCAAGATATATAGATGGTCCATCGAAAGGATTGGTGCTTCCAAAACCTTCGATGTCACCTCCTGA (double strand) [W3-box fragment (MINI3 promoter)]”, the binding entry is on record as “binds”.
“GACATTACTGTCATCGTATATGAAACATTATTCTAATAATTGTTATAAAAATACCGGAGTTAAACTAGATTGATTATCACCGAGATTTTATATTTGTCTAGATATATAGATGGTCCATCGAAAGGATTGGTGCTTCCAAAACCTTCGATGTCACCTCCTGA (double strand) [mW3-box fragment]”: the binding entry is reported as “binds”.
